# In patent US20190015484A1, “NICOTINE-DEGRADING ENZYMES FOR TREATING NICOTINE ADDICTION AND NICOTINE POISONING” (priority 2015, published 2019):
# Experiments:
# [1] = In vivo testing of NicA2: blood and brain nicotine levels in rats; parameters: species or system rat
# Protocol: Rats were used for in vivo testing because their nicotine metabolism is generally similar to that of humans with regard to rate and range of metabolites. 30 female, 250 g Sprague Dawley rats were pretreated with varying amounts of NicA2 intravenously as noted in Table B below.
# After administration of NicA2 (generally over 5 minutes), nicotine (0.03 mg/kg) was administered intravenously. At 5 minutes, the rats were sacrificed under isoflurane anesthesia and 1 ml blood samples were collected with 0.32 ml heparin. 0.5 ml of each blood sample was added to a tube containing ice cold 2 ml methanol (to quench NicA2 activity) and the contents were rapidly mixed. Another 0.5 ml of each blood sample was added to a tube containing ice cold 2 ml of methanol (to quench NicA2 activity) and deuterium labeled D4-nicotine, and the contents were rapidly mixed. The brains were collected and frozen at −20° C. Measurements were made in accordance with Keyler et al., International Pharmacology 2008, 8, […], and, Hieda et al., Psychopharmacology, 1999, 143(2), 150-157.
# [2] = NicA2 PK study in mice (ELISA of serum); format: in vivo, mouse
# Protocol: Purified His-tagged NicA2 was conjugated to 20 kDa PEG and subsequently purified by HPLC. […] The fusion protein was expressed in E. coli and purified as described above for NicA2.
# His-tagged NicA2, NicA2-PEG or NicA2-ABD was dosed intravenously in mice at 5 mg/kg. Blood sampling was done at pre-dose and then over a 5 min-72 h period (three animals per time-point) and processed to serum.
# Assay of serum samples was done taking advantage of the C-terminal His-tag on the test articles. MaxiSorp ELISA plates (Nunc) were coated overnight with anti-His×6 antibody (purchased from R&D Systems). Plates were blocked with 4% dry milk (purchased from Bio-Rad) in PBS. Dilutions of standard and serum samples in 2% milk in PBS+0.1% Tween-20 were added to the plates, and incubated for 1 hour at room temperature. After washing away unbound substances (all wash steps performed in PBS+0.1% Tween-20), rabbit anti-NicA2 polyclonal primary detection antibody (purchased from Noble Life Sciences, Inc.) was added to the wells for a 1 hour incubation. […] Plates were washed, and the remaining binding complex was detected with TMB substrate (3,3′,5,5′-tetramethylbenzidine; KPL). Once stopped with acid, plates were read on a spectrophotometer at 450 nm and data analyzed in SoftMax® Pro, version 6.5.1 (purchased from Molecular Devices). […]
# [3] = NicA2 stability assay in HEPES buffer at 37° C.; conditions: HEPES buffer pH=7.4
# Protocol: Four μM nicotine and 40 nM NicA2 were prepared in HEPES buffer and stored at 37° C. Upon sitting for 0, 1, 3, 4, 5, 8, 12, 16, 20, or 25 days, 100 μL of each solution was extracted, mixed, incubated, quenched, analyzed as detailed, vide supra.
# To test for these metrics, NicA2 was incubated at 37° C. in HEPES buffer and enzyme activity was examined at different time points.
# [4] = Temperature curve of NicA2; format: biochemical; conditions: HEPES buffer, 20-95° C.
# Protocol: 100 μL of each solution was mixed, incubated, quenched and then analyzed as detailed, vide supra.
# The effect of higher temperatures on the enzyme's stability was also examined.
molecule,measurement,setting,value
"NicA2: flavin-containing nicotine-degrading enzyme of Pseudomonas putida S16, amino acid sequence SEQ ID NO:1 (protein, His tag) MSDKTKTNEGFSRRSFIGSAAVVTAGVAGLGAIDAASATQKTNRASTVKGGFDYDVVVVGGGFAGATAARECGLQGYRTLLLEARSRLGGRTFTSRFAGQEIEFGGAWVHWLQPHVWAEMQRYGLGVVEDPLTNLDKTLIMYNDGSVESISPDEFGKNIRIAFEKLCHDAWEVFPRPHEPMFTERARELDKSSVLDRIKTLGLSRLQQAQINSYMALYAGETTDKFGLPGVLKLFACGGWNYDAFMDTETHYRIQGGTIGLINAMLTDSGAEVRMSVPVTAVEQVNGGVKIKTDDDEIITAGVVVMTVPLNTYKHIGFTPALSKGKQRFIKEGQLSKGAKLYVHVKQNLGRVFAFADEQQPLNWVQTHDYSDELGTILSITIARKETIDVNDRDAVTREVQKMFPGVEVLGTAAYDWTADPFSLGAWAAYGVGQLSRLKDLQAAEGRILFAGAETSNGWHANIDGAVESGLRAGREVKQLLS",brain nicotine levels,"[1]; 4 out of the 5 animals, 5 min after 0.03 mg/kg i.v. nicotine",< 2 ng/mL
same,blood and brain levels of nicotine,"[1]; rats, 5 minutes after 0.03 mg/kg i.v. nicotine, n=5",below the limit of quantitation
same,reduction in nicotine blood levels,"[1]; rats, highest NicA2 dose (9.72 mg/kg i.v.), 5 min after 0.03 mg/kg i.v. nicotine, compared to controls",> 95%
same,half-life in vivo,"[2]; in vivo in mammals, due to renal clearance",3 to 4 h
same,Half-life,"[2]; mice, 5 mg/kg intravenously, serum",3.7 h
same,stability and activity in HEPES buffer,[3],≥ 3 weeks
same,v0 over the duration of the study,[3],remained virtually constant
same,optimum temperature,[4],70 °C
